Laboratory results published in article PMC7525151, “Fumarase From Cyanidioschyzon merolae Stably Shows High Catalytic Activity for Fumarate Hydration Under High Temperature Conditions” (Frontiers in Microbiology, 2020).

Test system: O=C(O)C[C@H](O)C(=O)O
Assay: purified protein
Details: L-malate dehydration
[1] = 100 mM Tris-HCl pH 7.5, 50 °C, pH 7.5
[2] = 100 mM Tris-HCl pH 8.5, 52 °C, pH 8.5

TeFum (Thermosynechococcus vestitus BP-1), sequence (chain, as listed by the source): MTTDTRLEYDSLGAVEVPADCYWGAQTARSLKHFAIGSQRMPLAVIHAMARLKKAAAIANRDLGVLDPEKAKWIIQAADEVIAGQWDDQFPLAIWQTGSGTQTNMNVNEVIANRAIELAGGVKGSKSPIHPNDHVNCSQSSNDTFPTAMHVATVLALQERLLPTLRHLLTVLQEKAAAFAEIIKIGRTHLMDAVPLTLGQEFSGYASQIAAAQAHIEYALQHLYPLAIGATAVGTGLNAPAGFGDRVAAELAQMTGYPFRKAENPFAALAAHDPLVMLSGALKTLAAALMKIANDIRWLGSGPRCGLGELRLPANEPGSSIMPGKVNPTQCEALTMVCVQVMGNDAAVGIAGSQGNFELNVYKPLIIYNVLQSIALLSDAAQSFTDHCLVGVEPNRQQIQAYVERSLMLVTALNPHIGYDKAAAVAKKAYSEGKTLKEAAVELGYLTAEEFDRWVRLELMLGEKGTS
CmFUM (Cyanidioschyzon merolae strain 10D), sequence (chain, as listed by the source): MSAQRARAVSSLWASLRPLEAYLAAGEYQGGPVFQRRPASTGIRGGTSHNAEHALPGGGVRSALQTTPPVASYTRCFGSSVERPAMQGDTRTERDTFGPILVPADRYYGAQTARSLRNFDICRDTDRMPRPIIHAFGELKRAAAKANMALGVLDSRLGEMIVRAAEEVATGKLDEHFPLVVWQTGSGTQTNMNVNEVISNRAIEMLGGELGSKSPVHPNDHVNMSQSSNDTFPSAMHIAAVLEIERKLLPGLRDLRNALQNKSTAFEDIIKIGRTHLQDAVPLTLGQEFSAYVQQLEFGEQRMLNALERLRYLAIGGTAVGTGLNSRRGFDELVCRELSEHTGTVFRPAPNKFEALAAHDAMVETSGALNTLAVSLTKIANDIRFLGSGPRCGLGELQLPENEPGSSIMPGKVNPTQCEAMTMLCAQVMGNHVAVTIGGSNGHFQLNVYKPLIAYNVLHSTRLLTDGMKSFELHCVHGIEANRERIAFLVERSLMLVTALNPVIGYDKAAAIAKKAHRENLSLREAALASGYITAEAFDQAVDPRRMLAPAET

Substance | Km [1] | kcat [1] | kcat/Km [1] | Km [2] | kcat [2] | kcat/Km [2]
TeFum (Thermosynechococcus vestitus BP-1) | 200 ± 10 µM | 15 s⁻¹ | 76000 M⁻¹ s⁻¹ | – | – | –
CmFUM (Cyanidioschyzon merolae strain 10D) | – | – | – | 1490 ± 120 µM | 244 s⁻¹ | 164000 M⁻¹ s⁻¹
